According to patent publication US20220306683A1, “PROXIMITY-BASED LABELING SYSTEMS AND APPLICATIONS THEREOF” (The Trustees of Princeton University, priority 2019, published 2022):
Ends that are not written are not given here.

Molecular target: E3 ligase MDM2 (Homo sapiens, UniProt Q00987)
Assay: Peptide-photocatalyst conjugate labeling of MDM2 versus BSA
Conditions: peptide conjugated to photocatalyst through azido-lysine

E3 ligase MDM2, sequence (Q00987 whole entry): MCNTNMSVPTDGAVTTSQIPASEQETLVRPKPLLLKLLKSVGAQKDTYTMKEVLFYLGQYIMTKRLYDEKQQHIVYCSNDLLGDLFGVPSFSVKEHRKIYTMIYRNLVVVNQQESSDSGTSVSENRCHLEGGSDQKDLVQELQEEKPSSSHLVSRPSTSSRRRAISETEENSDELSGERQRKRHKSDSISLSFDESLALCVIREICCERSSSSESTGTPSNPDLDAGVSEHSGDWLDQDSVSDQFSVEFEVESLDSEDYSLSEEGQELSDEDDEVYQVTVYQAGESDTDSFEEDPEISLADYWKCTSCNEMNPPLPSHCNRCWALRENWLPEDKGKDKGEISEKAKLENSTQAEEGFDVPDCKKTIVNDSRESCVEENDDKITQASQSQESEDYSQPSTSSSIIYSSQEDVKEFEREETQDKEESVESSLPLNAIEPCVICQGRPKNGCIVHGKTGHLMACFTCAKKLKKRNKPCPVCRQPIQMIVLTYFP

## ATSP7041: α-helical stapled cyclic peptide targeting MDM2, conjugated to the photocatalyst through a modified azido-lysine (KLTFAEYWAQAASAA; staple (positions not given here); also: stapled, places not given here, photocatalyst conjugated via azido-lysine, place not given here)
  enrichment of target protein MDM2 compared to free photocatalyst control: 3 fold
